{
  "source": "patent US20120214173A1",
  "about": "“Methods of Identifying Modulators of an Ehd Polypeptide” (priority 2007, published 2012)",
  "molecules": {"B1": {"name": "EHD2 E91Q (protein)", "chain": "MFSWLKKGGARGQRPEAIRTVTSSLKELYRTKLLPLEEHYRFGSFHSPALEDADFDGKPMVLVAGQYSTGKTSFIQYLLEQEVPGSRVGPQPTTDCFVAVMHGETEGTVPGNALVVDPEKPFRKLNPFGNTFLNRFMCAQLPNQVLESISIIDTPGILSGAKQRVSRGYDFPAVLRWFAERVDLIILLFDAHKLEISDEFSEAIGALRGHEDKIRVVLNKADMVETQQLMRVYGALMWALGKVVGTPEVLRVYIGSFWSQPLLVPDNRRLFELEEQDLFRDIQGLPRHAALRKLNDLVKRARLVRVHAYIISYLKKEMPTVFGKENKKKQLILKLPVIFAKIQLEHHISPGDFPDCQKMQELLMAHDFTKFHSLKPKLLEALDDMLAQDIAKLMPLLRQEELESVEAGVQGGAFEGTRMGPFVERGPDEAIEDGEEGSEDDAEWVVTKDKSKYDEIFYNLAPADGKLSGSKAKTWMVGTKLPNSVLGRIWKLSDVDRDGMLDDEEFALASHLIEAKLEGHGLPTNLPRRLVPPSKRRQKGSAE"}, "B2": {"name": "T72A: EHD2 mutant in the phosphate binding (P-)loop, nucleotide-free (protein, UniProt Q8BH64 1-543, looked up, variant T72A)", "EH domain-containing protein 2": "B1 chain with T72A, Q91E"}, "B3": {"name": "EHD2 K193D (protein)", "chain": "B1 chain with Q91E, K193D"}, "B4": {"name": "EHD2 D198R (protein)", "chain": "B1 chain with Q91E, D198R"}, "B5": {"name": "EHD2 R167E (protein)", "chain": "B1 chain with Q91E, R167E"}},
  "key": {"EH-domain of EHD2": {"biological_target": "T1, EH-domain of EHD2 (Mus musculus, UniProt Q8BH64)", "T1 sequence (Q8BH64 449-537 limits assumed)": "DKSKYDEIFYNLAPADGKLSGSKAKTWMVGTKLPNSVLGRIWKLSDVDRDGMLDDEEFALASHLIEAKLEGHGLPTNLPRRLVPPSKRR", "assay": "ITC peptide binding to the EH-domain of EHD2", "conditions": "ITC at 10° C.; for affinity of xPF peptide to the EH-domain of EHD2 by ITC: 100 mM HEPES (pH 7.5), 50 mM NaCl, 200 μM CaCl2", "from_the_text": "EH-domains are low affinity protein-protein interactors normally found in endocytic multi-subunit assemblies. A likely purpose of the EH-domain is in recruitment of the protein to sites of action. […] An alternative explanation for the function of the EH-domain in the oligomer can be proposed based on the presence of two conserved PF motifs (NPF and IPF) in a disordered surface loop at the side of the G-domain between β-sheet 2A and 2B. In our proposed oligomer, the EH-domains from one dimer are close to the side-site NPF motif of the adjacent dimer (FIG. 4c) and thus after oligomerisation on membranes they may switch position from the top site position in the dimer to the side site in the opposing dimer. […] A dominant negative mutant in C. elegans Rme1 is found in the linker between the EH-domain and the helical domain^3 pointing to the importance of this flexible linker."}, "EHD2 [1]": {"biological_target": "T2, EHD2 (Mus musculus, UniProt Q8BH64)", "T2 construct": "Mouse EHD2 full-length protein and all mutants were expressed as N-terminal His-fusions followed by a PreScission cleavage site; His (N, cleaved yes); made in house; host or cells: Escherichia coli BL21 DE3 Rosetta", "T2 sequence (Q8BH64 1-543)": "B1 chain with Q91E", "assay": "ITC nucleotide binding to EHD2", "conditions": "ITC at 10° C.", "procedure": "(§1) Amino acid numbering corresponds to mouse EHD2. b, EHD2 binds to adenine nucleotides, as determined by ITC. For clarity, ΔΔH=ΔHn−ΔH1 is plotted. […] Images were acquired close to the basal cell surface. f, Nucleotide hydrolysis was measured by HPLC in the absence (empty symbols) or presence of Folch liposomes (filled symbols). Data represent mean and standard deviation for two (intrinisic reactions) or three (stimulated reactions) independent experiments.\n(§2) ITC measurements were performed at 10° C. in 20 mM HEPES (pH 7.5), 300 mM NaCl, 2 mM MgCl2. Liposome binding assays were performed as described previously (www.endocytosis.org). Multiple turnover ATPase assays were performed in 20 mM HEPES (pH 7.5), 135 mM NaCl, 15 mM KCl, 1 mM MgCl2 at 30° C. with 10 μM EHD2 (or mutants) as enzyme and 100 μM ATP as substrate, in the absence or presence of 1 mg/ml Folch liposomes (Sigma-Aldrich).\n(§3) Mouse full-length EHD2 was expressed in bacteria and purified to homogeneity (FIG. 5). The purified protein was nucleotide-free as judged by HPLC analysis. […] It was previously reported that EHDs—despite having a predicted G-domain—bind to adenine nucleotides^15. […] We still refer to this domain as a G-domain because the sequence and fold (see below) are clearly similar to other G-domains. […] Using synthetic liposomes containing various different phosphatidyl-inositols (PI) (FIG. 1c) we observed best binding to liposomes containing PI(4,5)bisphosphate (PIP2)."}, "HeLa cells": {"test_system": "HeLa cells", "assay": "Over-expression of EGFP-tagged EHD2 and mutants in HeLa cells (confocal / live imaging)", "format": "cell-based", "conditions": "24 h after transfection, fixed", "procedure": "as §1\n(§4) Nucleotide hydrolysis was measured as described in FIG. 1f. In vitro tubulation activity of PS liposomes was analysed as described in FIG. 1d. f, EGFP-tagged mutants were over-expressed in HeLa cells. […] For each construct, three independent experiments with ≈50 cells/experiments were analysed.\nUltracentrifugation. Sedimentation velocity experiments were performed in a Beckman Optima XLA ultracentrifuge, using an An-60Ti rotor. Centrifugation was at 50,000 rev×min and 5° C. at an EHD2 concentration of 15 μM, with scans as fast as possible (˜1.5 min intervals). The data were analysed using DCDT+ v.2^44,45, with the partial specific volume for the protein (from the amino acid composition) and solvent density and viscosity calculated using Sednterp^46. Selected scans (at equal, ˜15 min intervals), and of g(s20,w) (the amount of material sedimenting between s20,w and (s20,w+δs)) and also the residuals for fitting the data with DCDT+, were plotted with the program profit v.5.6.7 (Quantum soft, Switzerland). Cell biology. N-terminal EGFP-tagged EHD2 and all mutants were over-expressed in HeLa cells from the pEGFP-C3 vector (Clontech). HeLa cells were grown as per ECACC guidelines with 10% fetal bovine serum and transfected using Genejuice (Novagen) for transient protein expression. 24 h after transfection, cells were fixed for 10 min at 37° C. in 3% paraformaldehyde and mounted. All confocal images were taken sequentially using a BioRad Radiance system and LaserSharp software (Biorad). For real-time microscopy, transfected cells on glass-bottom Petri dishes (WillCo Wells BV, Amsterdam) were washed with 25 mM HEPES (pH 7.5), 125 mM NaCl, 5 mM KCl, 10 mM D-glucose, 1 mM MgCl2, 2 mM CaCl), and epifluorescence images were taken using an Olympus IX70 microscope (Southhall, UK) and Argon laser (Melles Griot, Carlsbad, Calif.) with a Princeton instruments (Trenton, N.J.) cooled I-PentaMAX camera with MetaMorph software (Universal imaging).\nEHD2 wild-type was over-expressed in HeLa cells for 24 h and imaged by EPI-fluorescence for approximately 30 min.\nEHD2 T94A was over-expressed in HeLa cells for 24 h and imaged by EPI-fluorescence for approximately 30 min. […] EHD2 I157Q was over-expressed in HeLa cells for 24 h and imaged by EPI-fluorescence for approximately 30 min."}, "EHD2 [2]": {"biological_target": "T2, EHD2", "assay": "Multiple turnover ATPase assay (nucleotide hydrolysis by HPLC) with or without Folch liposomes", "format": "biochemical", "conditions": "for membrane-stimulated ATPase activity (in words): presence of Folch liposomes", "procedure": "as §1, §2\nReactions were started by the addition of the protein to the final reaction mix and nucleotide hydrolysis was followed using standard HPLC measurement^27. Initial rates were determined by applying a linear fit to data points up to 40% nucleotide hydrolysis. For electron microscopic studies, 2.5 μM EHD2 in 20 mM HEPES (pH 7.5), 150 mM NaCl, 1 mM MgCl2 was incubated for 15 min at 25° C. in the presence of 1 mM nucleotide and 0.05 mg/ml (final concentration) of the indicated liposomes. Samples were spotted on carbon-coated copper grids (Canemco and Marivac) and negatively stained with 2% uranyl acetate.\nWe next monitored the effect of membrane-binding on the ATPase activity of. EHD2 under multiple-turnover conditions (10-fold excess of ATP over EHD2), in the presence and absence of Folch liposoines (FIG. 1f). The intrinsic/background ATPase activity is extremely slow (kobs=0.7 h^−1) but is stimulated 8-fold in the presence of Folch or PS liposomes (kobs=5.6 h^−1)."}, "[3]": {"assay": "Liposome co-sedimentation (membrane binding) assay", "conditions": "Folch / PS liposomes", "procedure": "as §1, §4, §2, §3"}},
  "note": "Numbering of substitutions follows the chain as printed. In names and notes the source's numbering stands. Several values for one entry are separate records, joined by “and”; a condition that tells them apart may be missing. Equal values may be shown once. Entries after “also recorded” stand apart in the source; their conditions may differ. Ends that are not written are not given here.",
  "data": [
    {"molecule": "PEKPFRKL [peptide from EHD2 containing KPF motif]", "values": [
      {"measurement": "affinity of xPF peptide to the EH-domain of EHD2 by ITC", "setting": "EH-domain of EHD2", "value": "did not (show detectable binding"}
    ]},
    {"molecule": "Nc1ncnc2c1ncn2[C@@H]1O[C@H](COP(=O)(O)OP(=O)(O)O)[C@@H](O)[C@H]1O", "note": "[ADP]", "values": [
      {"measurement": "n (fitted ITC value), nucleotide binding to EHD2", "setting": "EHD2 [1]", "value": 0.9},
      {"measurement": "Kd", "setting": "EHD2 [1]; 20 mM HEPES (pH 7.5), 300 mM NaCl, 2 mM MgCl2, read-out: affinity to EHD2 determined by ITC", "value": "50 µM and ~50 µM"}
    ]},
    {"molecule": "KLNPFGNT [KLNPFGNT]", "values": [
      {"measurement": "n (fitted ITC value), peptide binding to EH-domain", "setting": "EH-domain of EHD2", "value": 1.33}
    ]},
    {"molecule": "Nc1nc2c(ncn2[C@@H]2O[C@H](COP(=O)(O)OP(=O)(O)OP(O)(O)=S)[C@@H](O)[C@H]2O)c(=O)[nH]1", "note": "[GTP-γ-S]", "values": [
      {"measurement": "affinity to EHD2 determined by ITC", "setting": "EHD2 [1]; 20 mM HEPES (pH 7.5), 300 mM NaCl, 2 mM MgCl2", "value": "No binding signal was observed"}
    ]},
    {"molecule": "RMGPFVER [peptide from EHD2 linker containing GPF motif]", "values": [
      {"measurement": "affinity of xPF peptide to the EH-domain of EHD2 by ITC", "setting": "EH-domain of EHD2", "value": "did not (show detectable binding"},
      {"measurement": "affinity of xPF peptide to the EH-domain of EHD2 by ITC", "setting": "EH-domain of EHD2; listed as top site GPF peptide", "value": "not the top site GPF peptide, bound with a measurable affinity"}
    ]},
    {"molecule": "B1", "values": [
      {"measurement": "assembly-stimulated ATP hydrolysis", "setting": "Q8BH64", "value": "all mutants showed reduced or completely abolished assembly-stimulated ATP hydrolysis"}
    ]},
    {"molecule": "B2", "values": [
      {"measurement": "distribution of EGFP-tagged protein over-expressed in HeLa cells", "setting": "HeLa cells", "value": "cytoplasmic distribution"},
      {"measurement": "membrane-stimulated ATPase activity (in words)", "setting": "EHD2 [2]", "value": "did not show stimulation of ATP hydrolysis; also recorded: did not show membrane-stimulated ATPase activity"},
      {"measurement": "binding to liposomes (co-sedimentation)", "setting": "[3]", "value": "bound to Folch liposomes"}
    ]},
    {"molecule": "B3", "values": [
      {"measurement": "assembly-stimulated ATP hydrolysis", "setting": "Q8BH64", "value": "all mutants showed reduced or completely abolished assembly-stimulated ATP hydrolysis"}
    ]},
    {"molecule": "B4", "values": [
      {"measurement": "assembly-stimulated ATP hydrolysis", "setting": "Q8BH64", "value": "all mutants showed reduced or completely abolished assembly-stimulated ATP hydrolysis"}
    ]},
    {"molecule": "B5", "values": [
      {"measurement": "intrinsic/basal ATPase activity (in words)", "setting": "EHD2 [2]; absence of membranes", "value": "increased basal ATPase activity"},
      {"measurement": "membrane-stimulated ATPase activity (in words)", "setting": "EHD2 [2]", "value": "not further stimulated by Folch liposomes"},
      {"measurement": "assembly-stimulated ATP hydrolysis", "setting": "Q8BH64", "value": "all mutants showed reduced or completely abolished assembly-stimulated ATP hydrolysis"},
      {"measurement": "nucleotide hydrolysis (basal and Folch-stimulated ATPase)", "setting": "Q8BH64", "value": "mutant R167E (in Switch II) showed an increased basal ATPase activity which was not further stimulated by Folch liposomes"}
    ]}
  ]
}
